B1: Pegivirus K (nucleic acid)
DNA: AGAATGGTGTGATCCGTCGCCGCTCCAGCGGAAAGCGGGCGGGATCTAGTGGTTAGGGTTGTTCGCGTAAATCCCACACTAGTGGTACGCTCGTATAACGTGGGAGCAGCCGGTGGGGTCGACCCCCCACCTGGCGGCTGCTGAGCACCGGACGAAGCGCGGGGGGTGAACGCTAACCCGCGGCCCGGGCTGCCAACGTTAGGCACGTCTTGGCTGGAAGACGTTAAACACAGGGCCCCCCCTCAACCCTGATCCGAGGCCAGAGACCAAGGTACGCCGCCCTTTTAAAGGCGTTACTCGTCCAATAGGATCTCTCCGGCGGGTTGTCAAACCTTGCTGGCCCTGGTGATGGTTACGGGAGGGGGTGGGGCGGGGAGTAGAAGCCCCGCCCGGCATGGGGGTACCAAGCTCGGCACGCCCAGCACGCGTGGCGTAGGGGAAAAATCCTTCGGGTGACCCCTGGTACCATAAAGTAATTAACATGAGCATGCCGCTAGGGTGTGCTTTTTCTTCCTTCCTTGGGAAGGCGGTGGCACC
modifications: lipid formulation; Pegivirus K
B2: GB virus C/Hepatitis G virus (nucleic acid)
chain: CCCCCGGCACTGGGTGCAAGCCCCAGAAACCGACGCCTATCTAAGTAGACGCAATGACTCGGCGCCGACTCGGCGACCGGCCAAAAGGTGGTGGATGGGTGATGACAGGGTTGGTAGGTCGTAAATCCCGGTCACCTTGGTAGCCACTATAGGTGGGTCTTAAGAGAAGGTTAAGATTCCTCTTGTGCCTGCGGCGAGACCGCGCACGGTCCACAGGTGTTGGCCCTACCGGTGGGAATAAGGGCCCGACGTCAGGCTCGTCGTTAAACCGAGCCCGTTACCCACCTGGGCAAACGACGCCCACGTACGGTCCACGTCGCCCTTCAATGTCTCTCTTGACCAATAGGCGTAGCCGGCGAGTTGACAAGGACCAGTGGGGGCCGGGGGCTTGGAGAGGGACTCCAAGTCCCGCCCTTCCCGGTGGGCCGGGAAATGC
modifications: lipid formulation; source: /note="Description of Unknown: GB virus C/Hepatitis G virus sequence"
B3: Pegivirus I (nucleic acid)
DNA: AGAATGGTCTAAGTGGTTGCCACCGTGGTCCGAAGGGGAGGAGGACCTACGCTGCCAGGGTTGGCAGGTCGTAAATCCCGGGTGTAGGAGATCCCTCCTTGTTAGGACTGCTGGTAGCTGGGGGGTCGGTGACCCCCTGGGCAACCGCCAAACCCGGACGACCGGGTGGCGGCTCCATGTTGGCACGGTCCACAGGTGTGAACCCTACCGGTGTGAATAAGGGTTGGTGGTTGCGGTCCACCTTAAACGTAGTATGCATTGGGCTTGGTAAAACACCGCTCGTAGTACGGAACGCCGCCTTTAAAGACACAGTAGGCGTAGCCGGCGGGTTGACAATCCATACGGGGGGTGGGGTGTGGTCATGGATCTGTCCACACCACCTTCATGCGGCCCTCTAAGCAAGCCATACCGGGGGGAGGCGCGCGGCACCGCACTGCCGGGCAAGGGGAAGAACCTTCGGGTGACCCCCCCCCAACCACCGTCCGATCAATGCTAATGTTGCGTTTAGGCGTGACACCGGCACA
modifications: lipid formulation; Pegivirus I
B4: Theiler's disease-associated virus (nucleic acid)
DNA: TGATACCGTGTCCCGGTACGACCTCGCGCGTCCCCAAGCTCGCCCTGAGGGGGGAGCGTAAGGGCGCGTAGTGGGGTAGCCCCCCAAACCGAGCCACCCTAGTGAGTGACTTTAGAATGGTTAGGGAGACTACCGCCTTCGCTGTTTGGGGACCTAATGATCCGCGTGCCAGGGTTCTTCGGGTAAATCCCGGCGCGGTGTTTTGGGTTCAGGGCAGTAGGGGCAGACGGGCCAGCAGTCGCTGGTTCCTGGTACCACCACCCTATCCGGACGACCTCCCTCACGAAAGGTCGCCACGGTCTGTGGCTCGACGACGCCTATAATTCAGTCCGAGGGGCGCAGCCCTCGTTAAACTTAGGCAAGGTTCCTCGCCATTGATTTGGCCAGGGGTTTAAGTGAACGCCGCCCTTTTAATGTTTAATAGGGTTCTTTCCCGGCGGGTTGACAAACACTTCCCTGGGCTCTTCGTTGGCCTCGGTTCCTTGATGCTTCGGCACCCATGAGCGCACAGGGGGGGGACCCTGCGACAGTCCGCCAAGAGGAAAATCCTTCGGGTGACCTCGTGCGCAACCCAATCCCTTCTTCTTCCACATGGCGTGTCTGTGGTGCATGCTGTG
modifications: lipid formulation; source: /note="Description of Unknown: Theiler's disease-associated virus sequence"
B5: Zika Virus (nucleic acid, listed as Zika virus)
DNA: AGTTGTTGATCTGTGTGAGTCAGACTGCGACAGTTCGAGTCTGAAGCGAGAGCTAACAACAGTATCAACAGGTTTAATTTGGATTTGGAAACGAGAGTTTCTGGTC
modifications: chemistry not fully specified; the letters are possibly those of the target site
B6: Simian pegivirus (nucleic acid, listed as Pegivirus sp.)
DNA: GGGGAATCTCACCCCCCGTCCGGTTCCGGAAGAATCGGAAACCGACACCCTGACCAATCATTCTTGATCATAGAGTGGATGTTAGTGAAAGCCAGACGAAAGCCGGCGGATGGGTGGTGACAGGGTTGGTAGGTCGTAAATCCCGGCCACCCTGGTACCCGGTATAAGTTGGGCGGAAGCTGACTGAAGCTCCGTGCTCTTTTCTGTGCGTTCTTGGTGCACGGTCCACAGGTGACGCCTATACCGGTGTGAATAATAGGCCGACTCGAGCGGAGTCGTTAAACTGAGAACCTCCATACGGATGGCAACTTGGCTTGCGTACGGGGACGCCGCTAAAGTCACAGTGGGTTAAGTCCGGCGGGTTGACAACCCCAGCAAGGCGAGGGGGTCCTATTGTTGGACTCTGCCAGTTCCCGGTGGAGGTAGGCATGGGGTGGCCCAGCTCCGCGGCGCGCTACAGCCGGGGTAGCCCAAAATCCGAAAGGTGAGGGCGGGCCACATGTCCGAAATTTAGTCAAGC
modifications: lipid formulation
B7: Sakobuvirus A FFUP1 (1x mut) (nucleic acid)
DNA: TCACGCGCTTTTCCGGTGGTCACCCACCGTTAGGGAGCGCCAGCGTTCGCGCTTCCGCTACCAGGTGACACACTCCTTTCCCCTCCCCCATTCCCGTTCCCATCCTCTGGACTGGTTTCTCCTCACGATTGACCAGCAGCTGGGAGCTGTTACCAGACGTTGGACAGTAAGTCCCGGATGCACTATAGGGCTGGTGGCTAGTGCTTGGTAAGCACTCAACGCCATACCTAATGTGTACCTCGGCTTGCCCTCCTGGTCGTGGTGACCGGCTGTTTCTCTTCCCTTGGCTCCAGACGGGCTGGTGTCCTACCACCACCGTTGCATGCAGACCTCCCCCTGCGCACTCGAACGCCCTGTCCCAGCAGGGTTAGTATGTGCTGTGCAGATCTGCATGTGACACCCCATCCACTGGTAGAGCAGGAAGTTGCCCTAGCTAACGCGGCAAGTATTACTTTCCGCTACACGTCCTTGAGATTCCTCGGACCTCTGGAACTAGGGTGACTGTGGGCTTGGGAAAACCCACCTTGGTCCTGTACTGCCTGATAGGGTCGCGGCTGGCCGACCAGTGGATGTAGCCAGTTGTTTTGGGAT
modifications: lipid formulation
B8: Equine hepacivirus (nucleic acid, listed as Hepacivirus sp.)
chain: ACCTCCGTGCTATGCACGGTGCGTTGTCAGCGTTTTGCGCTTGCATGCGCTACACGCGTCGTCCAACGCGGAGGGATTCTTCCACATTACCATGTGTCACTCCCCCTATGGAGGGTTCCACCCCGCCCACACGGAAATAGGTTAACCATACCTATAGTACGGGTGAGCGGGTCCTCCTAGGGCCCCCCCGGCAGGTCGAGGGAGCTGAAATTCGTGAATCCGTGAGTACACGGAAATCGCGGCTTGAACGTCATACGTGACCTTCGGAGCCGAAATTTGGGCGTGCCCCACGAAGGAAGGCGGGGGCGGTGTTGGGCCGCCGCCCCCTTTATCCCACGGTCTGATAGGATGCTTGCGAGGGCACCTGCCGGTCTCGTAGACCATAGGAC
modifications: lipid formulation
B9: Rodent pegivirus (nucleic acid, listed as Pegivirus sp.)
DNA: GGACTTCGGTCCCCCTGTTACTCTGCGAGCCACCGCAGAGCCAGGGTTGGTACGCCCGAGGTGTTAGACCCCGGCCGAAAGCTCCTAACCATGGGGTTAGTAGGACGTGGTAAATGCCACTGAGGGGTTGGAGAGCTGGTAGAGCGAGTAAGTCGGCGTAAGGCCCGAGTACGGGCCTCCCAGCCCGGGTCAGCCTAAACCTGGCTGTGATACCCGGTGCATGGAGGGCGTGTCCCAACGCTCGATCGCTGTAGGGTGGGTCCCTGCAGTTGGGTGTGGCTACCCTGCTCGTACTGCTTGATAGAGTCCCGGCGGACGGACCAGCTCTCGTCAGTCCGTGGAGTTGCAC
modifications: lipid formulation
B10: Human pegivirus 2: "an IRES is an IRES sequence of ... Human Pegivirus 2" (nucleic acid, listed as Pegivirus sp.)
DNA: AACTGTTGTTGTAGCAATGCGCATATTGCTACTTCGGTACGCCTAATTGGTAGGCGCCCGGCCGACCGGCCCCGCAAGGGCCTAGTAGGACGTGTGACAATGCCATGAGGGATCATGACACTGGGGTGAGCGGAGGCAGCACCGAAGTCGGGTGAACTCGACTCCCAGTGCGACCACCTGGCTTGGTCGTTCATGGAGGGCATGCCCACGGGAACGCTGATCGTGCAAAGGGATGGGTCCCTGCACTGGTGCCATGCGCGGCACCACTCCGTACAGCCTGATAGGGTGGCGGCGGGCCCCCCCAGTGTGACGTCCGTGGAGCGCAAC
B11: Yokose virus (nucleic acid, listed as Yokose virus)
DNA: AGTAAATTTTGCGTGCTAGTCGCTGAGCGTCAGACCGCAAAGTGAGTTTTTAGTGATCTAAAGTGAGGAGTTATTCTTACTGTCATCAAACACTACAAATAAACACGTTGAAATTATTTCCGGAAGAACAACTGTCCGGAATCAAAGACG
modifications: lipid formulation

The molecules below were run on HEK293 cells. Conditions: circular RNA encoding Gluc with the listed IRES (UTR truncated to 675 nt) transfected into HEK293 cells; supernatant after 24 hours.
Assay type: cell-based, human
With B1 the “Expression (luminescence from secreted Gluc protein)” value (“Expression” for short) was 8.07E+04.
B2 was tested, and the “Expression” value was 1.36E+05.
B3 was tested, and the “Expression” value was 8.02E+04.
With B4 the “Expression” value was 7.84E+04.
With B5 the “Expression” value was 8.61E+04.
B6 was tested, and the “Expression” value was 8.56E+04.
For B7, the “Expression” value was 8.82E+06.
In the case of B8, the “Expression” value is reported as 8.40E+04.
In the case of B9, the “Expression” value is reported as 1.79E+05.
In the case of B10, the “Expression” value is reported as 3.14E+05.
In the case of B11, the “Expression” value is reported as 8.55E+04.

Reference: patent US20240245805A1 (Orna Therapeutics, Inc., priority 2020, published 2024)
